These results are taken from the supplement of paper PMC12042874.

± gives the uncertainty stated by the source.

The nature of the series: amyloid nucleation score (Sup35N fusion, yeast selection) (log enrichment); library NNK2; higher = more nucleation; inactive = no reads after selection. Put shortly: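 Peptides of 20 random codons, each fused to Sup35N, were expressed in psi-negative yeast. Cells were induced with 100 μM copper sulfate for 24 hours and grown 7 days at 30°C on medium lacking adenine and uracil, and plasmid inserts before and after selection were Illumina-sequenced. Nucleation scores are DiMSum log enrichments of output over input reads, centred on the mode score of non-aggregating sequences, and sequences under 100 input reads were excluded.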
Consider RISLERGNDFVTWVVYMKWA, for which the amyloid nucleation score is -0.081 ± 0.34.

In the case of RIVCSNSWR, the amyloid nucleation score is -0.113 ± 1.1.

Turning to RIVMKRRFYCKSWSLIVHPG, the amyloid nucleation score is -0.826 ± 0.28.

RIYLGRQYYRSEGLKQLVNG had an amyloid nucleation score of 0.151 ± 0.63.

Take RKEVCTVRNLHSRFRGGAIR: the amyloid nucleation score was -0.119 ± 0.55.

For RKLIFVMTRRLGRSSRTVLM, the amyloid nucleation score was 0.112 ± 1.1.

For RKPLLHLVRFRWNNPLDNE, the amyloid nucleation score is -1.03 ± 0.76.

For the substance RKSYPRIYVHPSWKCVGDRY, the amyloid nucleation score was determined as 0.066 ± 0.41.

With RKTLVGDNLNEGVKSWGWSR, the amyloid nucleation score was -1.29 ± 0.45.

The substance RKWQED gave an amyloid nucleation score of 0.488 ± 0.47.

For RLAVVLVPRIGYSSKSSETR, the amyloid nucleation score stood at 1.11 ± 0.34.

The substance RLCANDLIIGVEMGEGVFDY showed an amyloid nucleation score of 1.1 ± 0.31.

RLDMYGLLINWSSVCLYNNI showed an amyloid nucleation score of 0.257 ± 0.21.

In the case of RLEALRCLSYITSSSLYRCP, the amyloid nucleation score worked out at 0.163 ± 0.41.

As for RLEEDGSD, the amyloid nucleation score came out at 7.125 ± 0.067.

RLENMCMASPR: the amyloid nucleation score was determined as 0.464 ± 0.46.

As to RLFVPFVFFQAMPTEREPFH, the amyloid nucleation score was -0.79 ± 1.

In turn, RLFYGCITGIVVSSILGVCM returned an amyloid nucleation score of 2.47 ± 0.21.

Turning to RLFYYSSFYKDY, the amyloid nucleation score entry is “inactive”.

As to RLGRC, the amyloid nucleation score came to 0.94 ± 0.33.

Substance RLIIPIQSCLWGGWYRTGET displayed an amyloid nucleation score of 8.106 ± 0.054.

RLILY had an amyloid nucleation score of -0.775 ± 0.43.

In the case of RLINRSDEVYSFLFKRRGSK, the amyloid nucleation score result was “inactive”.

With RLIRFSIMEV, the amyloid nucleation score is -0.291 ± 0.54.

As to RLLHYAFAFTARV, the amyloid nucleation score is 3.15 ± 0.068.

The substance RLLSTCMILMMASRTCYVYN had an amyloid nucleation score of 0.69 ± 0.52.

For RLMFLVFSESSKYSALHMWG, the amyloid nucleation score was found to be 0.939 ± 0.19.

On to RLPHSVSALSLKILGGARAR, for which the amyloid nucleation score turned out to be 0.02 ± 0.56.

For the substance RLRFPSPFRTVNWSFIRFAR, the amyloid nucleation score was found to be 5.03 ± 0.069.

In turn, RLRNI registered an amyloid nucleation score of 0.399 ± 0.2.

As for RLRYM, the amyloid nucleation score is -0.631 ± 0.76.

As for RLSDLTQVLLDSLTRCGWWG, the amyloid nucleation score worked out at 0.841 ± 0.43.

RLSFQSCCLPFVYWNWW registered an amyloid nucleation score of 7.738 ± 0.048.

RLSGRVTCSVNVGHSLKGTV returned an amyloid nucleation score of 4.529 ± 0.045.

RLSLNFDVRLC showed an amyloid nucleation score of 1.21 ± 0.61.

In turn, RLSPPLCVLIYIMRYLNGYW returned an amyloid nucleation score of 0.42 ± 0.66.

For the substance RLTQCLVHRPYPV, the amyloid nucleation score is 0.572 ± 0.3.

Consider RLYKSARVASHVDLGCTFRC, for which the amyloid nucleation score came out at 1.35 ± 0.18.

RMIPCLLRFGTYLFF had an amyloid nucleation score of -0.509 ± 1.1.

In turn, RMNWGSNFLEE yielded an amyloid nucleation score of -0.663 ± 0.32.

For RMRCTIMLMTGKRTCYLMRE, the amyloid nucleation score is -0.216 ± 0.41.

Substance RMSIWRFRMSLAQDGLGRFQ gave an amyloid nucleation score of 5.564 ± 0.044.

As to RMVTVAS, the amyloid nucleation score turned out to be 1.68 ± 0.32.

In turn, RMWDSSCSLRGMRLGVYRAR had an amyloid nucleation score of 0.396 ± 0.53.

Regarding RMYLVYNFLRLDLSARVVLA, the amyloid nucleation score result is “inactive”.

In turn, RNADI returned an amyloid nucleation score of 0.343 ± 0.46.

Consider RNAKMMTSSLVYNWFVFAER, for which the amyloid nucleation score amounted to 5.353 ± 0.045.

For RNAQPLNGPRSPVSGTDWYS, the amyloid nucleation score stood at 0.092 ± 1.1.

Substance RNFDMPLLAYGMTWEQLMEF gave an amyloid nucleation score of 4.51 ± 0.058.

In turn, RNFRSCP showed an amyloid nucleation score of 0.797 ± 0.44.

The substance RNIGAR displayed an amyloid nucleation score of 0.635 ± 0.16.

RNPNVEVCRKQFRVGCSLAN returned an amyloid nucleation score of -0.931 ± 0.39.

Take RNSSYIDFIGRWH: the amyloid nucleation score result is “inactive”.

In the case of RNTTKWKMMTLTFNCTRRKK, the amyloid nucleation score was -0.766 ± 1.

RNYEGPPGDLGQQVLSHSMP displayed an amyloid nucleation score of -0.853 ± 0.63.

Consider RPHTLGHRCSCQSNFFLLPL, for which the amyloid nucleation score was 0.025 ± 1.1.

Regarding RPLLKRKESM, the amyloid nucleation score was 0.573 ± 0.28.

The substance RPNFFVLNSNMNNYVQARVP came in with an amyloid nucleation score of 4.59 ± 0.047.

Consider RPNNLDMVH, for which the amyloid nucleation score was 0.619 ± 0.57.

Turning to RPRRSTGCIFVDCKSKQHCI, the amyloid nucleation score was found to be 2.84 ± 0.15.

As for RPTHEAF, the amyloid nucleation score came to 5.87 ± 0.089.

In turn, RQMPVGGCVFMTKVCKT returned an amyloid nucleation score of 0.232 ± 0.64.

RQVANWAVVIGNPMVMNPEG yielded an amyloid nucleation score of -0.295 ± 0.63.

RQVSHVNFAVLNINYNWYRS returned an amyloid nucleation score of 8.16 ± 0.084.

RRETRMGVSSVLDPVAGRWP had an amyloid nucleation score of 1.58 ± 0.17.

Turning to RRLWGIALYRVSLVVFGSLY, the amyloid nucleation score is -0.354 ± 0.25.

For the substance RRMYMQPTKLPFYIPGRMCP, the amyloid nucleation score entry is “inactive”.

Turning to RRSTWSISLS, the amyloid nucleation score was -0.916 ± 0.45.

Substance RRSWDTYMGERGHQLPNPCG returned an amyloid nucleation score of 0.93 ± 0.36.

RRYMSVDSK: the amyloid nucleation score result is “inactive”.

RRYMVMSDWLDKPWWGYFGV came in with an amyloid nucleation score of -0.855 ± 0.24.

Substance RSCMMCTT yielded an amyloid nucleation score of 0.266 ± 0.41.

In the case of RSCPFAFGEGG, the amyloid nucleation score turned out to be 0.782 ± 0.55.

RSCSFRRLSGSVETLSGWAK returned an amyloid nucleation score of 0.35 ± 0.43.

In turn, RSDRVIGDMTGAECITLGRL registered an amyloid nucleation score of -0.82 ± 0.45.

The substance RSDVFIGTSIFGALSCV showed an amyloid nucleation score of -0.025 ± 0.45.

RSFGSYCAGEGTRSPRDSRG: the amyloid nucleation score turned out to be 0.172 ± 0.65.

The substance RSFLWVFRKYRGW came in with an amyloid nucleation score of 0.783 ± 0.66.

Take RSFMVRRFVNANIEIMIRRI: the amyloid nucleation score result was “inactive”.

As for RSGESRWTYYLVEIYFDGSF, the amyloid nucleation score was -0.913 ± 0.78.

Substance RSGWVEPSNITVIWVKMLVQ yielded an amyloid nucleation score of 0.166 ± 0.55.

In turn, RSGYGWTVLFERLSKHCEFK displayed an amyloid nucleation score of -0.301 ± 0.39.

RSHMYSGYIYLIQKTFLREV: the amyloid nucleation score is -1.29 ± 0.26.

RSHPKMMSDICSV returned an amyloid nucleation score of 0.178 ± 0.65.

RSHTTGLPS: the amyloid nucleation score was found to be 0.718 ± 0.15.

For the substance RSIDRYRHHNLCRNQYVM, the amyloid nucleation score was -0.693 ± 1.1.

Regarding RSIWMKLCMWIECSDKETRF, the amyloid nucleation score worked out at 4.17 ± 0.13.

For the substance RSLLVEFRRYKQRH, the amyloid nucleation score turned out to be 6.238 ± 0.062.

Substance RSLSA gave an amyloid nucleation score of 1.02 ± 0.34.

Regarding RSMSRRGFLCLHR, the amyloid nucleation score amounted to 0.948 ± 0.67.

For RSMYFGVQSLMYRSRLPKGS, the amyloid nucleation score came out at 4.01 ± 0.067.

Substance RSPDKDSMQTTLLIRRVTSW gave an amyloid nucleation score of 1.14 ± 0.48.

Regarding RSQIPNYYWQYMLVYSYLQG, the amyloid nucleation score amounted to 0.201 ± 0.74.

Turning to RSWKLGVDGWPLMSEFP, the amyloid nucleation score is 1.64 ± 0.29.

As for RTARPILDPC, the amyloid nucleation score result was “inactive”.

RTCSRGSFTYMEIGNVGRGC: the amyloid nucleation score is 0.275 ± 0.5.

RTEDPKTDYVKRGKRKWRVW: the amyloid nucleation score was -0.129 ± 1.1.

On to RTLFV, for which the amyloid nucleation score is -0.146 ± 0.63.

Regarding RTRCYCVYFRLLVHFA, the amyloid nucleation score turned out to be 0.057 ± 1.1.

For the substance RTSSL, the amyloid nucleation score was -0.336 ± 0.49.

Consider RTYGYRDIQVQYRFCFCRGD, for which the amyloid nucleation score turned out to be 8.589 ± 0.057.

RTYLGLVLGF: the amyloid nucleation score entry is “inactive”.

On to RVCPFSQYHVFVS, for which the amyloid nucleation score was -0.155 ± 0.18.

As to RVDKMMYSRLPCLVAV, the amyloid nucleation score turned out to be 0.466 ± 0.49.

RVDYSMREFCLSSRAREDTV registered an amyloid nucleation score of -0.353 ± 0.42.
